This note sets out measurements from patent US20110293511A1 (LUDWIG INSTITUTE FOR CANCER RESEARCH, published 2011).

Ends that are not written are not given here. * marks the point of attachment. Biotin = O=C1N[C@H]2[C@H](CS[C@H]2CCCCC(=O)*)N1

The target in assay [1] is T1, anti-idiotype antibody LMH-12.
T1 construct: mouse IgG1 kappa; also called clone 5B8; SB8
Kind of assay: sandwich ELISA: capture on plate-bound LMH-12 (10 µg/ml), detection with biotinylated LMH-12 and avidin-HRP.

The target of assay [2] is T2, EGFR fragment 1-294, yeast-displayed (human, UniProt P00533 25-318).
T2 construct: range 1-294
Kind of assay: flow cytometry, indirect immunofluorescence on yeast displaying EGFR fragment 1-294.

The target of assay [3] is T3, Peptide C, C-terminal biotinylated de2-7 peptide (human, C-terminal biotin; the reagent list prints it on an added lysine, LEEKKGNYVVTDH(K-Biot)-OH).
T3 peptide: LEEKKGNYVVTDH
The experiment in a line: BIAcore, Peptide C on streptavidin chip.

The target in assay [4] is T4, biotinylated de2-7 specific peptide (Biotin-LEEKKGNYVVTDH) (human).
T4 construct: also called unique de2-7 EGFR peptide
T4 peptide: Biotin-LEEKKGNYVVTDH
Kind of assay: ELISA, biotinylated peptide on streptavidin plates.

The target in assay [5] is EGFR fragment 475-621, yeast-displayed (human, UniProt P00533 499-645). Kind of assay: flow cytometry on yeast displaying the EGFR fragment, % positive cells.
Assay [6] has as its target EGFR fragment 1-176, yeast-displayed (human, UniProt P00533 25-200). The assay is described as above.
Assay [7] addresses T5, de2-7 EGFR unique junctional peptide (human).
T5 construct: non-biotinylated; also called Junction Peptide
T5 peptide: LEEKKGNYVVTDH-OH
The experiment in a line: dot-blot immune stain.

B1: chimeric antibody ch806 (antibody, human IgG1, V domains shown)
VH: DVQLQESGPSLVKPSQSLSLTCTVTGYSITSDFAWNWIRQFPGNKLEWMGYISYSGNTRYNPSLKSRISITRDTSKNQFFLQLNSVTIEDTATYYCVTAGRGFPYWGQGTLVTVSA
VL: DILMTQSPSSMSVSLGDTVSITCHSSQDINSNIGWLQQRPGKSFKGLIYHGTNLDDEVPSRFSGSGSGADYSLTISSLESEDFADYYCVQYAQFPWTFGGGTKLEIKR
notes: also called chAb806
Take B1: in assay [1], the “EC50 (read off the curve)” value was approximately 0.6 µg/mL.

B2: mAb806 (antibody, V domains shown)
VH: B1 VH
VL: B1 VL
notes: murine IgG2b
For B2, the binding result in assay [2] is “no binding (tested: 10 µg/ml (single concentration))”; in assay [3] it was “no binding (tested: 100 nM)”; in assay [4], “no binding”; in assay [5] it was “no binding (tested: 10 µg/ml (single concentration))”; in assay [6], “no binding (tested: 10 µg/ml (single concentration))”; in assay [7], “no binding”. Also, in assay [1], the “EC50 (read off the curve)” value was approximately 0.07 µg/mL.
